Target: PKA (Homo sapiens, UniProt P17612)
Assay: Inhibition of PKA phosphorylation of substrates in vitro (kinetic analysis)
Format: biochemical
Protocol: Tissue was processed as described in the legend to FIGS. 1a-1e and immunoblotted for phospho-Thr75 (FIG. 2a), total DARPP-32 (FIG. 2b), or phospho-Thr34 (FIG. 2c). […] Purified DARPP-32 was phosphorylated to a stoichiometry of 0.93 mol/mol using native cdk1/cyclin B purified from sea star. Phospho-Thr75 DARPP-32 was precipitated from the reaction mixture with 5% TCA, resuspended in 1M Tris-HCl (pH 8.8), and dialyzed against 10 mM HEPES (pH 7.4). […] FIG. 2g depicts a Lineweaver-Burki kinetic analysis of PKA phosphorylation of ARPP-21 in the presence of 0 (◯), 5 (□), 10 (⋄), or 15 (Δ) μM Phospho-Thr75 DARPP-32.

- rates of phosphorylation by PKA of inhibitor-1, ARPP-21, synapsin I and histone H1 (15 μM phospho-Thr75 DARPP-32, purified catalytic subunit of PKA): dramatic reduction
- mechanism of PKA inhibition (ARPP-21 phosphorylation, 0-15 μM inhibitor): linear competitive single site mechanism
B1: phospho-Thr75 DARPP-32: the phosphorylated form of Thr75 DARPP-32; inhibitor of PKA (protein, listed as Homo sapiens)
chain: MDPKDRKKIQFSVPAPPSQLDPRQVEMIRRRRPTPAMLFRLSEHSSPEEEASPHQRASGEGHHLKSKRPNPCAYTPPSLKAVQRIAESHLQSISNLNENQASEEEDELGELRELGYPREEDEEEEEDDEEEEEEEDSQAEVLKVIRQSAGQKTTRGLGLEGPWERPPPLDESERDGGSEDQVEDPALSEPGEEPQRPSPSEPGR
modifications: phosphorylated Thr75
